# ± gives the uncertainty stated by the source.
# Assay: self-splicing fitness, log relative to wild type (ln ratio); higher = more splicing; Tetrahymena group I intron in knt gene, E. coli kanamycin selection, DiMSum; sequences stand for … in CUCUCU…GGAGGGAAAAGUUAUCAGGCAUGCACCUGGUAGCUAGUCUUUAAACCAAUAGAUUGCAUCGGUUUAAAAGGCAAGACCGUCAAAUUGCGGGAAAGGGGUCAACAGCCGUUCAGUACCAAGUCUCAGGGGAAACUUUGAGAUGGCCUUGCAAAGGGUAUGGUAAUAAGCUGACGGACAUGGUCCUAACCACGCAGCCAAGUCCUAAGUCAACAGAUCUUCUGUUGAUAUGGAUGCAGUUCACAGACUAAAUGUCGGUCGGGGAAGAUGUAUUCUUCUCAUAAGAUAUAGUCGGACCUCUCCUUAAUGGGAGCUAGCGGAUGAAGUGAUGCAACACUGGAGCCGCUGGGAACUAAUUUGUAUGCGAAAGUAUAUUGAUUAGUUUUGGAGUACUCGUGGUCG
# How it was run: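 The eight P1ex-region nucleotides of an intron in the knt kanamycin-resistance gene on pET-22b(+) were all randomised and the library put into E. coli BL21(DE3). Six replicate transformations were grown overnight at 37°C or 30°C on LB agar with or without 25 μg/mL kanamycin, together with 100 μg/mL carbenicillin, 50 μM IPTG and 0.2% rhamnose. Colonies were pooled and amplicon-sequenced on an Illumina HiSeq 2500. Fitness from DiMSum is the error-weighted combination of wild-type-normalised replicate fold changes, kanamycin over none.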
Sequence,self-splicing fitness (ln) (30 °C),self-splicing fitness (ln) (37 °C)
GAUUAGCAAUAUUACGCGAA,-3.47 ± 0.29,-1.44 ± 0.21
GAUUAGCAAUAUUACGCUAA,-3.24 ± 0.39,-1.89 ± 0.35
GAUUAGCAAUAUUACGCUCG,-1.11 ± 0.12,-0.397 ± 0.15
GAUUAGCAAUAUUACGCUCU,-1.26 ± 0.41,-0.272 ± 0.27
GAUUAGCAAUAUUACGGAGA,-2.78 ± 0.25,-2.19 ± 0.24
GAUUAGCAAUAUUACGGAGU,-2.77 ± 0.19,-2.5 ± 0.23
GAUUAGCAAUAUUACGGGGG,-4.1 ± 0.34,-2.72 ± 0.24
GAUUAGCAAUAUUACGGUAA,-1.83 ± 0.23,-1.5 ± 0.17
GAUUAGCAAUAUUACGGUCU,-3.15 ± 0.32,-2.07 ± 0.18
GAUUAGCAAUAUUACGUAUU,-3 ± 0.12,-1.65 ± 0.1
GAUUAGCAAUAUUACGUCCA,-2.04 ± 0.21,0.198 ± 0.18
GAUUAGCAAUAUUACGUCGC,-1.91 ± 0.15,-0.838 ± 0.16
GAUUAGCAAUAUUACGUCGU,-2.56 ± 0.19,-1.13 ± 0.17
GAUUAGCAAUAUUACGUGAC,-2.89 ± 0.12,-0.588 ± 0.094
GAUUAGCAAUAUUACGUUGU,-2.91 ± 0.23,-2.15 ± 0.28
GAUUAGCAAUAUUACGUUUG,-2.64 ± 0.15,-0.801 ± 0.16
GCAAAGCAAUAUUACGACCA,-0.267 ± 0.15,-0.678 ± 0.19
GCAAAGCAAUAUUACGAGAG,-2.7 ± 0.095,-1.89 ± 0.12
GCAAAGCAAUAUUACGAGCU,-3.48 ± 0.16,-1.5 ± 0.12
GCAAAGCAAUAUUACGAUGC,-3.46 ± 0.24,-2.53 ± 0.32
GCAAAGCAAUAUUACGCAGA,,-2.76 ± 0.3

Sequence,self-splicing fitness (ln) (30 °C),self-splicing fitness (ln) (37 °C)
GCAAAGCAAUAUUACGCAGG,-2.33 ± 0.13,-2.02 ± 0.19
GCAAAGCAAUAUUACGCCUG,-2.21 ± 0.1,-1.12 ± 0.12
GCAAAGCAAUAUUACGGAAA,-1.88 ± 0.18,-1.66 ± 0.19
GCAAAGCAAUAUUACGGCAU,-0.675 ± 0.095,0.0956 ± 0.1
GCAAAGCAAUAUUACGGGCU,-2.56 ± 0.12,-2.45 ± 0.2
GCAAAGCAAUAUUACGGGGG,-3.28 ± 0.2,-1.87 ± 0.18
GCAAAGCAAUAUUACGGGGU,-3.73 ± 0.15,-2.5 ± 0.15
GCAAAGCAAUAUUACGGUCU,-1.38 ± 0.087,0.608 ± 0.1
GCAAAGCAAUAUUACGGUGA,-0.987 ± 0.079,0.221 ± 0.098
GCAAAGCAAUAUUACGUAGA,-1.64 ± 0.074,-1.13 ± 0.095
GCAAAGCAAUAUUACGUAGG,-1.52 ± 0.05,-0.897 ± 0.074
GCAAAGCAAUAUUACGUAUG,-2.9 ± 0.11,-2.71 ± 0.2
GCAAAGCAAUAUUACGUAUU,-2.65 ± 0.075,-1.29 ± 0.081
GCAAAGCAAUAUUACGUCAU,-2.25 ± 0.096,-1.37 ± 0.091
GCAAAGCAAUAUUACGUCGA,-1.83 ± 0.091,-0.578 ± 0.094
GCAAAGCAAUAUUACGUUGU,-3.71 ± 0.15,-2.99 ± 0.15
GCAAAGCAAUAUUACGUUUU,-2.95 ± 0.11,-3 ± 0.18
GCACAGCAAUAUUACGAAUU,-1.19 ± 0.077,-0.471 ± 0.085
GCACAGCAAUAUUACGAGCC,-3.2 ± 0.28,-2.01 ± 0.23
GCACAGCAAUAUUACGAGUC,-2.62 ± 0.069,-1.29 ± 0.065
GCACAGCAAUAUUACGAGUU,-1.81 ± 0.057,-0.499 ± 0.072
